To fix the notation:
B1: 02G06R3 His-tagged VHH (VHH)
VHH: EVQLVESGGGLVQAGGSLRLSCAASGRTFDSYAMGWFRQAPGKEREFVAAISWTGGSTDYADSVKGRFTISRDNAKNTVYLQMDSLKPEDTAVYYCAAEVVGRDVTTMYRVSGLEYEYDYWGQGTQVTVSS
B2: 01B01R3 His-tagged VHH (VHH)
VHH: QVQLVESGGGLVQAGGSLRLSCAASGRTFSSYAMGWFRQAPGKEREFVAVISWSGGSTYYADSVKGRFTISRDNAKNTVYLQMNSLKPEDTAVYYCASGEQPGSNRPYIPEQPIEFMPTDYPSWYDYWGQGTLVTVSS
B3: 01F03R2 His-tagged VHH (VHH)
VHH: QVQLVESGGGLVQAGGSLRLSCAASGRTFSSYAMGWFRQAPGKEREFVAVISWSGGSTYYADSVKGRFTISRDNAKNTVYLQMNSLKPEDTAVYYCASGEQPGSNRPYIPEQPIEFMPTDYPSWYDYWGQGTQVTVSS
B4: 01A09R2 His-tagged VHH (VHH)
VHH: EVQLVESGGGLVQAGGSLRLSCAASGRTFSSNPMGWFRQAPGKEREFVAAISWSGGGTYYADSVKGRFTISRDNAKNTVTLQMNSLKPEDTAVYYCASRDYSDPISLWVEDREYDYWGQGTQVTVSS
B5: 03B07R3 His-tagged VHH (VHH)
VHH: QVQLVESGGGLVQAGGSLRLSCAASGRTFSSNPMGWFRQAPGKEREFVAAISWSGGGTYYADSVKGRFTISRDNAKNTVTLQMNSLKPEDTAVYYCASRDYSDPISLWVEDREYDYWGQGTLVTVSS
B6: 03D05R3 His-tagged VHH (VHH)
VHH: EVQLVESGGGLVQAGGSLRLSCAASGRTFSSNPMGWFRQAPGKEREFVAAISWSGGGTYYADSVKGRFTISRDNAKNTVTLQMNSLKPEDTAVYYCASRDYSDPISLWVEGREYDYWGQGTLVTVSS
B7: 01F01R2 His-tagged VHH (VHH)
VHH: QVQLVESGGGLVQAGGSLRLSCAASGRTFSSNPMGWFRQAPGKEREFVAAISWSGGGTYYADSVKGRFTISRDNAKNTVTLQMNSLKPEDTAVYYCASRDYSDPISLWVEDREYDYWGQGTQVTVSS
B8: 01C02R3LS His-tagged VHH (VHH)
VHH: QVQLVESGGGLVQAGDSLRLSCAASGRTRTTYGMGWFRQAPGKEREFVTTITWSGSTNYKYYADSVKGRFTISRDNAKNTVYLQMNSLKPDDTAVYYCAASTVLTDPRVPTEYDYWGQGTQVTVSS
B9: 02E01R3LS His-tagged VHH (VHH)
VHH: QVQLVESGGGLVQAGDSLRLSCAASGRTFTTYGMGWFRQAPGKEREFVTTITWSGSTNYKYYADSVKGRFTISRDNAKNTVYLQMNSLKPDDTAVYYCAASTVLRDPRVPTEYDYWGQGTQVTVSS
B10: 01C08R2L His-tagged VHH (VHH)
VHH: EVQLVESGGGLVQAGDSLRLSCAASGRTFTTYGVGWFRQAPGKEREFVTTITWSGSTNYKYYADSVKGRFTISRDNAKNTVYLQMNSLKPDDTAVYYCAASTVLTDPRVPTEYDYWGQGTQVTVSS
B11: 01H06R3L His-tagged VHH (VHH)
VHH: EVQLVESGGGLVQAGDSLRLSCAASGRTRTTYGMGWFRQAPGKEREFVTTITWSGPTNYKYYADSVKGRFTISRDNAKNTAYLQMNSLKPDDTAVYYCAASTVLTDPRVPTEYDYWGQGTQVTVSS
B12: 01H11R2LS His-tagged VHH (VHH)
VHH: EVQLVESGGGLVQAGDSLRLSCAASGRTLTTYGMGWFRQAPGKEREFVATIKWSGSTNYKYYADSVKGRFTISRDNAKNTVYLQMNSLKPEDTAVYYCAAGTVLGDPRVLNEYDYWGQGTLVTVSS
B13: 01B10R3L His-tagged VHH (VHH)
VHH: QVQLVESGGGLVQAGDSLRLSCAASGRTFTTYVMGWFRQPPGKEREFVATISWSGSTTYKYYADSVKGRFTISRDNAKNTVYLQMNSLKPEDTAVYYCAASTVVADPRAPNEYDYWGQGTQVTVSS
B14: 01G08R3LS His-tagged VHH (VHH)
VHH: QVQLVESGGGLVQAGDSLRLSCAASGRTFTTYGMGWFRQGPGKEREFVATITWSGSTNYKYYTDSVKGRFTISRDNAKNTVYLQMNSLKPEDTAVYYCAASTVLTDPRRLNEYDYWGQGTQVTVSS
B15: 01A01R3 His-tagged VHH (VHH)
VHH: EVQLVESGGGLVQAGGSLRLSCAASGSGRTFTSYTMGWFRQAPGKEREFVSALTWADDSTYYKYYADSMKGRLTISRDNAKNTVYLQMNSLKPEDTAVYYCVATGRGLTYDPRDRRKYDYWGQGTQVTVSS
B16: 02H11R3 His-tagged VHH (VHH)
VHH: EVQLVESGGGSVQAGGSLRLSCAASGRTFSNYAMGWFRQAPGKEREFVAGISRSGGSTYSADSVKGRFTISRDNAKNTVYLQMNSLKPEDTAVYYCAADGLDYALGFRGDYWGQGTQVTVSS
B17: 03C05R3 His-tagged VHH (VHH)
VHH: EVQLVESGGGLVKAEGSLRLSCVASTSIASINVMGWYRQAPGKERELVARISGGGITHYAESVEGRFTISRDNAKNTVHLQMNGLKPEDTAAYYCKADVFASSGHVTTYWGQGTLVTVSS
B18: 01C01R2LS His-tagged VHH (VHH)
VHH: QVQLVESGGGLQQAGGSLRLSCAASGRTVTVMTVGWFRQAPGKEREFVAAITMYGERTYYADSVKGRFTISRDNAKNTVDLQMNSLKPEDAAVYYCAARTYVSGIYDRFDDYNYWGQGTQVTVSS
B19: 03A08R3 His-tagged VHH (VHH)
VHH: QVQLVESGGGLVQAGGSLRLSCAASGRTSSIYGMGWFRQAPGKEREFVAAISWSAGRTYHADSVKGRFTISRDNAKNMVYLQMDKMKPGDTAVYYCAARRAPELLSDYTQKPEEIGTYHYWGQGTLVTVSS
B20: 01G02R2LS His-tagged VHH (VHH)
VHH: QVQLVESGGGLVQAGDSLALSCAGSGDTFSNYAMGWFRQAPGKEREFVADISWYGANIGYADSVKGRFTISRDNAKNMVTLRMNSLKPEDTAVYYCAADRNHWPVKGDYWGQGTQVTVSS
B21: 02B03R3 His-tagged VHH (VHH)
VHH: EVQLVESGGGLVQSGGQLRLSCAASGSIASIRDMAWYRQAPGKQRELVAIFARGGTTHYADSVKGRFTISRDNAKNTVYLQMNSLEPEDTAAYYCNAEVATMFQPGFRDYWGRGTLVTVSS
B22: 01A03R3L His-tagged VHH (VHH)
VHH: EVQLVESGGGLVQPGGQLRLSCAASGSIASVRDMAWYRQAPGKQRGLVAIFARGGTTHYADSVKGRFTISRDNAKNTVYLQMNSLEPEDTAAYYCNAEVATMFQPGFRDYWGRGTLVTVSS
B23: 02H04R3 His-tagged VHH (VHH)
VHH: EVQLVESGGGLVQPGGRLRLSCAASGSIFSIRDMGWYRQAPGKQRELVAIFARGGSTHYADSVKGRFTISRDNAKNTVYLQMNSLEPEDTAAYYCNAEVATMIQPGFRDYWGQGTQVTVSS
B24: 01C03R3L His-tagged VHH (VHH)
VHH: QVQLVESGGGLVQPGGRLRLSCAASGSIFSIRDMGWYRQAPGKQRELVAIFARGGSTHYADSVKGRFTISRDNAKNTVYLQMNSLEPEDTAAYYCNAEVATMIQPGFRDYWGQGTLVTVSS
B25: 02G03R3 His-tagged VHH (VHH)
VHH: EVQLVESGGGLVQAGGSLRLSCAASGMPDNIFSIKTMGWYRQAPGKERELVAAITSGGSTNYGDSVKDRFTISRDRIENTVNLEMNNLKPEDTAVYTCHADLTYIRFQDMEYWGKGTQVTVSS
B26: 02D06R3 His-tagged VHH (VHH)
VHH: QVQLVESGGGLVQPGGRLRLSCAASGSIFSIRDMAWYRQAPGKQREWVAIAARGGSTHYADSVKGRFTISRDNAKNTVYLQMNTLEPEDTAAYYCNAEVATMIQPGFRDYWGQGTQVTVSS
B27: 01E11R2 His-tagged VHH (VHH)
VHH: QVQLVESGGGLVQTGGSLRLSCAASGLTFSSYTMGWFRQAPGKEREFVAAISWGGASTWYADSVKGRFTISRDNAKTMVYLQMNGLKPEDTAVYYCAKGRNNGYATAVRAYDYWGQGTLVTVSS
B28: 01C01R2L His-tagged VHH (VHH)
VHH: QVQLVESGGGLVQAGGSLRLSCAASGRTLRSYIVGWFRQAPGKEREFVAAVTWSDGRRVTADPVKGRFTISRDNAKNTVYLQMDSLKPEDAAVYYCAVSRGGAYEYSRAYEYWGQGTLVTVSS
B29: 02G04R3 His-tagged VHH (VHH)
VHH: QVQLVESGGGLVQAGGSLRLSCAANGRAANAYAVGWFRQAPGKEREFVAHIRWNGGRTAYADSVKGRFTISRDDAKNTVYLQMDSLKPEDTAVYYCAEDTNPDAFGDLRLPSEYEYWGQGTQVTVSS

Data on 29 molecules can be found in patent US20220112276A1 (Janssen / Centocor, published 2022).

T1 sequence (P01833 19-638 limits assumed): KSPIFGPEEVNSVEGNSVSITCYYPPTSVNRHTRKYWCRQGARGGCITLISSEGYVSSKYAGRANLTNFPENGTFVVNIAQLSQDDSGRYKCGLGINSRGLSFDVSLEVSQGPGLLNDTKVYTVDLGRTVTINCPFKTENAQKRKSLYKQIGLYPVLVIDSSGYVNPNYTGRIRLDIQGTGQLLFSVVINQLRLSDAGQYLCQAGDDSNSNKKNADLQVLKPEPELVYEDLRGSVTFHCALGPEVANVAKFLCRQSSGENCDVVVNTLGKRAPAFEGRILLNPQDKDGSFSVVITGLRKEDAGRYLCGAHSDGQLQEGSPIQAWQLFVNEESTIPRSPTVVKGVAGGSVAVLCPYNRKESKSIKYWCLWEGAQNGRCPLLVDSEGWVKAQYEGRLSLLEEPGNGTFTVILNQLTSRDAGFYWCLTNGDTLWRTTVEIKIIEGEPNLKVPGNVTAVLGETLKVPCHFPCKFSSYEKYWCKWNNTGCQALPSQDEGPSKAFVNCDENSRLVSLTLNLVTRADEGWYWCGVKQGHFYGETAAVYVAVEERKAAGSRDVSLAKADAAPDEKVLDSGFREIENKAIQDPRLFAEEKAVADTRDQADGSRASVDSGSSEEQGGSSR

This test concerns the target T1, recombinant human pIgR (hpIgR) (human, UniProt P01833 19-638, limits assumed).
T1 construct: probably the ECD
The test is described as follows: ELISA, periplasmic VHH, BSA subtracted. The procedure: Initial Library Screening: After each panning round showing enrichment, 94 individual clones were expressed and tested in an off-phage initial screen for specific binding to mpIgR or hpIgR (respectively depending on the antigen used). Screening of monoclones in an off-phage format was performed by transforming the phagemid pool into a non-amber-suppressor strain of E. coli and picking random colonies. The VHH proteins were recovered in the periplasmic fraction by performing osmotic shock. Periplasmic fractions containing His-tagged nanobodies were tested for binding to hpIgR or mpIgR. Bound nanobody was detected with a polyclonal anti-alpaca VHH domain antibody. Each clone was also tested for non-specific binding to BSA in parallel. The ELISA values obtained on BSA were subtracted from the ELISA values obtained on the respective pIgR antigen.
Repeat Testing of Positive Hits: The hits identified in the initial screen of the phage pools were re-tested for binding to either hpIgR or mpIgR. Periplasmic fractions were prepared again by performing osmotic shock. Periplasmic fractions containing His-tagged nanobodies were tested for binding to mpIgR. In this assay, bound nanobody was detected with an anti-VHH antibody. Each clone was also tested for non-specific binding to BSA in parallel. The ELISA values obtained on BSA were subtracted from the ELISA values obtained on the respective pIgR antigen.
In general terms: In an ELISA, binding on a coated surface is turned into a signal by an enzyme label.
For B1, the ELISA (OD) is 1.8 OD.

Take B2: the “ELISA (OD)” value worked out at 1.68 OD.

Regarding B3, the “ELISA (OD)” value came to 2.1 OD.

Consider B4, for which the “ELISA (OD)” value was found to be 1.86 OD.

As for B5, the “ELISA (OD)” value was 2.19 OD.

Consider B6, for which the “ELISA (OD)” value is 2.29 OD.

B7: the “ELISA (OD)” value is 2.2 OD.

B8: the “ELISA (OD)” value turned out to be 2.01 OD.

On to B9, for which the “ELISA (OD)” value came out at 1.54 OD.

As to B10, the “ELISA (OD)” value worked out at 1.98 OD.

For B11, the “ELISA (OD)” value came out at 1.87 OD.

On to B12, for which the “ELISA (OD)” value was found to be 0.43 OD.

B13: the “ELISA (OD)” value came out at 2.04 OD.

With B14, the “ELISA (OD)” value was 2.41 OD.

Take B15: the “ELISA (OD)” value worked out at 0.91 OD.

For B16, the ELISA (OD) is 1.97 OD.

For the molecule B17, the “ELISA (OD)” value came out at 0.99 OD.

On to B18, for which the ELISA (OD) is 0.82 OD.

Consider B19, for which the “ELISA (OD)” value stood at 2.1 OD.

As for B20, the ELISA (OD) is 1.62 OD.

As for B21, the “ELISA (OD)” value is 0.44 OD.

On to B22, for which the “ELISA (OD)” value was 2.03 OD.

As to B23, the “ELISA (OD)” value was 2.4 OD.

With B24, the “ELISA (OD)” value is 1.77 OD.

For B25, the “ELISA (OD)” value is 2 OD.

Regarding B26, the ELISA (OD) was determined as 2.16 OD.

With B27, the ELISA (OD) is 2.01 OD.

On to B28, for which the ELISA (OD) was found to be 1.97 OD.

For B29, the “ELISA (OD)” value was 0.93 OD.
